Values of other authors, collected in publication PMC12332068.

Legend:
[1] = target: Bzz1 SH3#1-2 (Saccharomyces cerevisiae) (UniProt P38822); assay: BLI
[2] = target: Bzz1 SH3#1 (Saccharomyces cerevisiae) (UniProt P38822); assay: BLI

Kd [1]: 0.087 µM | Kd [2]: 7.5 µM
Substance: Las17 300-422 (from UniProt Q12446)
